This is an account of results in the supplement of paper PMC9170038.

Common to all, as to conditions: FMN input: 0 or 200 uM; Eterna round: R93 (includes R88 designs)
The subject of series [1] is MS2 coat protein. The series is described as follows: apparent KD of MS2 coat protein, switch OFF state (with FMN for OFF switches, without FMN for ON switches); designed switch direction (-1 OFF switch, 1 ON switch): 1; higher = weaker reporter binding. In short, it runs like this:
(§1)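 Illumina sequencing clusters served as templates for on-chip transcription of the designed RNA switches. SNAP-549-labelled MS2 coat protein was then titrated in twofold steps from 0.7 or 1.5 nM to 3 µM, allowing 0.8–1.5 h per step at first and 10–20 min per step later. The buffer held 100 mM Tris-HCl pH 7.5, 80 mM KCl and 4 mM MgCl2, without or with constant ligand. Apparent KD is the median per design of normalised cluster binding-curve fits.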

Series [2] deals with MS2 coat protein. The series is described as follows: apparent KD of MS2 coat protein, switch ON state; designed switch direction (-1 OFF switch, 1 ON switch): 1; higher = weaker reporter binding. In short, it runs like this:
as §1

Series [3] concerns MS2 coat protein. The series is described as follows: apparent KD of MS2 coat protein, switch OFF state (with FMN for OFF switches, without FMN for ON switches); designed switch direction (-1 OFF switch, 1 ON switch): -1; higher = weaker reporter binding. In short, it runs like this:
as §1

The subject of series [4] is MS2 coat protein. In words: apparent KD of MS2 coat protein, switch ON state; designed switch direction (-1 OFF switch, 1 ON switch): -1; higher = weaker reporter binding. In short, it runs like this: as §1

“AAAAAAAAAACUCAGGAUAUAGAUUGUAGAACAUGAGGAUCACCCAUGUAGUGAAAGAAGAGAGACUAGAAGGGAGUAAAAAAAAA [Same State 2 #3]”: the results for the “apparent KD of MS2 coat protein” value in the series on MS2 coat protein [1] and in the series on MS2 coat protein [2] were 69.1 nM and 43.2 nM, respectively.
“AAAAAAAAACGUGAGGAUAUGUGAAAAUUAACAUGAGGAUCACCCAUGUGAUAAAAAAAAAAAAAACAGAAGGUACAAAAAAAAAA [Same 2 again I have no idea]”: the “apparent KD of MS2 coat protein” value came out at 28.4 nM in the series on MS2 coat protein [1] and 21.2 nM with MS2 coat protein [2].
For “AAAAAAAAAGUCGAGGAUAUCCACAUGGCGACAUGAGGAUCACCCAUGUGAAGAAAAGCACAUGAGGAGAAGGCGACAAAAAAAA [Same State 2.7a (Tightrope mod)]”, in that order: 225 nM and 32.7 nM.
The corresponding values for “AAAAAAAAAUCACAGGAUAUACAAAAAAAAACAUGAGGAUCACCCAUGUAAAAAAAAAAAAAAAAGUAGAAGGGUGAUCCAAAAAA” are 9.28 nM and 12.1 nM.
The corresponding values for “AAAAAACAAAGAGAGGAUAUCCAAAAAAAAACAUGAGGAUCACCCAUGUAAAGAAAUUUAAAAUGGGAGAAGGCUCUUUGAAAAA [Same State 2.6b ( Helter Skelter 1)]” are 30.9 nM and 33.4 nM.
As for “AAAAAACAAAGAGAGGAUAUCCUGAAAAAAACAUGAGGAUCACCCAUGUAAAGAAAUUUAAAAUGGGAGAAGGCUCUUUGAAAAA [Same State 2.6c ( Helter Skelter 1)]”, the “apparent KD of MS2 coat protein” value in the series on MS2 coat protein [1] came out at 22.3 nM; in the series with MS2 coat protein [2] it was 24.6 nM.
With “AAAAAACAUGAGGAUCACCCAUGUAAUACAACAUCAGGAUAUUGGCUUGACUAUGUCUUACAAGAAGGGAUGAAAA [Same State 1.3d (Same State 1 - Omei 2 )]”, the “apparent KD of MS2 coat protein” value worked out at 81.5 nM with MS2 coat protein [1] and 30.5 nM with MS2 coat protein [2].
For “AAAAAACAUGAGGAUCACCCAUGUAGAAACAUGGGAGGAUAUACAAAGACGAAAGUCAAAGUAGAAGGCCUAAAGA [Mat - Same State 1 - Mod - D162]”, in that order: 182 nM and 162 nM.
Take “AAAAAACAUGAGGAUCACCCAUGUAGAAACAUGGGAGGAUAUACGAAGACGAAAGUCAAAGUAGAAGGCCUAAGAG [Garnet 89]”: the figures for the “apparent KD of MS2 coat protein” value in the series with MS2 coat protein [1] and with MS2 coat protein [2] were 592 nM and 183 nM, respectively.
For “AAAAAACAUGAGGAUCACCCAUGUGCAAAAUUCGCAGGAUAUUCUUUUUUUAAAUGGGAGGGAGAAGGGUGUAAAA [Nob's Hobby 20 - Jieux - Same State 1]”, in that order: 21.3 nM and 20.8 nM.
The corresponding values for “AAAAACAUGGUGCAGGAUAUAUUAAUAGUCACAUGAGGAUCACCCAUGUUCAUUUAUAUGAACGAGUAGAAGGGCGAUGAAAAAA [Mat - Same state - Malcolm Mod - D111]” are 410 nM and 247 nM.
The corresponding values for “AAAACACAUGAGGAUCACCCAUGUAGAAAUACGGGAGGAUAUACGAAAACGAAAGACAAAGUAGAAGGCCUAAAAG [saturn 7]” are 53 nM and 38.7 nM.
For the sequence “AAAACACAUGAGGAUCACCCAUGUAGAAAUAUGGGAGGAUAUACGAAAACGAAAGACAAAGUAGAAGGCCUAAAAG [saturn 4]”, the “apparent KD of MS2 coat protein” value in the series with MS2 coat protein [1] is 153 nM; with MS2 coat protein [2], 41.6 nM.
The corresponding values for “AAAACUACAGAUCAGGAUAUGUUUAGGUAAACAUGAGGAUCACCCAUGUGCACCUGAUAAACAACACAGAAGGGAUAACGUGGGA [Geerreleon]” are 25.7 nM and 20.7 nM.
On to “AAAAGACAUGAGGAUCACCCAUGUCAAAACAUAGGAGGAUAUGUCGUGAAAAAAGACUUGGCAGAAGGCCUUUGUC [SS1 - 48]”, for which the “apparent KD of MS2 coat protein” value with MS2 coat protein [1] was 19.3 nM; in the series on MS2 coat protein [2], 17.3 nM.
As for “AAAAGACAUGAGGAUCACCCAUGUCAAAACAUAGGAGGAUAUGUCUGGAAAAAAGACUGGACAGAAGGCCUUUGUC [SS1 - 59]”, the “apparent KD of MS2 coat protein” value in the series on MS2 coat protein [1] came out at 18.9 nM; in the series on MS2 coat protein [2], 15.5 nM.
For “AAAAGAGCGACACAGGAUAUGUUGACUCUAACAUGAGGAUCACCCAUGUGCAUUUAGGGUCGUGCGCAGAAGGGUGUAGCUCGGA [Laesbibiti]”, in that order: 24.7 nM and 11.7 nM.
The corresponding values for “AAAAUAAAAUAAAAGGAUAUAAAAUAAAAAACAUGAGGAUCACCCAUGUGAAAACAUGAAAAAAAAAAGAAGGAAAAAUAAAAAA [SS2: 76 No MS2]” are 31.6 nM and 21.3 nM.
Consider “AAAGAAGAAAGACAGGAUAUGGAUGGGUAAACAUGAGGAUCACCCAUGUAUAAGAAAGAAAGAAACCAGAAGGGUCAAAAGAAAA [Darius III]”, for which the figures for the “apparent KD of MS2 coat protein” value in the series on MS2 coat protein [1] and in the series with MS2 coat protein [2] were 551 nM and 42.7 nM, respectively.
For the sequence “GAAAAGUCAGGAUAUGCAGACAAAGCAAAAAAGCAAUGUCUGCAGAAGGGACAUGAGGAUCACCCAUGUAAAAG [Mat - Exclusion 4 - Mayanna - D116]”, the entries for the “apparent KD of MS2 coat protein” value in the series on MS2 coat protein [3] and with MS2 coat protein [4] were 70.1 nM and 61.1 nM, respectively.
For the sequence “GAAAAGUCAGGAUAUGUGGAAAAAAUAAAAAAAAUAAAAACACAGAAGGGACAUGAGGAUCACCCAUGUUAAAG [Mat - Exclusion 4 - Mayanna - D138]”, the results for the “apparent KD of MS2 coat protein” value in the series on MS2 coat protein [3] and in the series on MS2 coat protein [4] were 32.5 nM and 41.5 nM, respectively.
For “GAAAAGUGAGGAUAUACAUGAGGAUCACCCAUGUGUAUAAAAAAAUACACAAAAGAAAGUAGAAGGCACUAAAA [Mat - Exclusion 3 - Mayanna mod - D111]”, in that order: 65.9 nM and 25.8 nM.
Consider “GAAUGCAGAGGAUAUACGGGAUAGCAUCGAAAGAUGCUAAAACAUGAGGAUCACCCAUGUAGAAGGCUGCAGAA [JL Mod 02]”, for which the “apparent KD of MS2 coat protein” value in the series with MS2 coat protein [3] came to 144 nM; in the series with MS2 coat protein [4] it was 58 nM.
In the case of “GAUAGUGAAGGAUAUACUGGAGGAGUGCGAUAAAAGAAAGAACAUGAGGAUCACCCAUGUAGAAGGUCAGAAGU [JR_Exc002_Sub1226]”, the results for the “apparent KD of MS2 coat protein” value in the series with MS2 coat protein [3] and with MS2 coat protein [4] were 27.3 nM and 24.7 nM, respectively.
“GAUGAGUGAGGAUAUGUAAAAAAAAGAGAAGAGAAGAGAGAACAGAAGGCACAUGAGGAUCACCCAUGUAGGGA [Default title]”: the “apparent KD of MS2 coat protein” value worked out at 322 nM with MS2 coat protein [3] and 226 nM with MS2 coat protein [4].
With “GGAAAACAUGAGGAUCACCCAUGUAAGGAUAUGCAAAAAAAAAAGGAUAUAGAAGGAAGCAGAAGGUACAAAGG [salish99-ex1-28]”, the “apparent KD of MS2 coat protein” value in the series with MS2 coat protein [3] was determined as 55.1 nM; in the series on MS2 coat protein [4], 24.5 nM.
Consider “GGAAAACAUGAGGAUCACCCAUGUAAGGAUAUGCUAGGGAAGGAAAAAAACCCACCAGGCAGAAGGUACUAAAG [Janelle Amethyst 18 Mod 5 - Jieux - Exclusion 1]”, for which the “apparent KD of MS2 coat protein” value in the series on MS2 coat protein [3] came to 41.4 nM; in the series with MS2 coat protein [4], 22.9 nM.
For “GGAAAGCGAGGAUAUACAUGAGGAUCACCCAUGUUAACAAACAAACAAACAAACAAAAGUAGAAGGCGCAAAAU [Exclusion 3 This and That]”, the “apparent KD of MS2 coat protein” value in the series with MS2 coat protein [3] turned out to be 41.1 nM; in the series with MS2 coat protein [4], 42.6 nM.
The corresponding values for “GGGUGGCGAGGAUAUACAUGAGGAUCACCCAUGUGAGAGAAAAAAGUGAGAAAGAAAAGUAGAAGGCGCUGCCG [salish99-ex3-56]” are 329 nM and 47.9 nM.
For “GGUUGGCGAGGAUAUACAUGAGGAUCACCCAUGUGAGAGAAUAAAGUGAGAAAGAAAAGUAGAAGGCGCUGACG [salish99-ex3-44]”, in that order: 116 nM and 63.7 nM.
Regarding “GGUUGUCGAGGAUAUACAUGAGGAUCACCCAUGUGAGAGAAAAAAGUGAGAAAGAAAAGUAGAAGGCGAUGACG [salish99-ex3-58]”, the results for the “apparent KD of MS2 coat protein” value in the series with MS2 coat protein [3] and in the series on MS2 coat protein [4] were 180 nM and 38.2 nM, respectively.
The corresponding values for “GUAGAGUGAGGAUAUGAAUAAAAGAAGAGAAAGAGAAAGCAUCAGAAGGCACAUGAGGAUCACCCAUGUAUGAA [JR_Exc004_Sub1225]” are 25.3 nM and 29.2 nM.
“GUGUACAGAGGAUAUACUAAAGCUAGGAAACUAGCAAGAUCACAUGAGGAUCACCCAUGUAGAAGGCUGUACAC [Ex2: 740]”: the “apparent KD of MS2 coat protein” value in the series on MS2 coat protein [3] worked out at 500 nM; with MS2 coat protein [4], 58.1 nM.
In the case of “UAAAAACAUGAGGAUCACCCAUGUGAGGAUAUACGAAAGUAGAAGGCACUAAAAUAAAAUAGAAGGAUAAAAUA [Meechl Ex1 R2 m1]”, the “apparent KD of MS2 coat protein” value came to 37.5 nM in the series on MS2 coat protein [3] and 23.2 nM in the series with MS2 coat protein [4].
Regarding “UAAAAACAUGAGGAUCACCCAUGUGAGGAUAUGUGAAAAAAAAAAAAAAAAAAAACAAGCAGAAGGCACAAAAA [JR_Exc001_Sub020]”, the “apparent KD of MS2 coat protein” value is 584 nM with MS2 coat protein [3] and 67.6 nM with MS2 coat protein [4].
“UACGGACAUGAGGAUCACCCAUGUGAGGAUAUCGAUACCGAUAGCAUAAUAUAAUCGGCGAGAAGGCACAGCGU [JR_Exc001_Sub505]”: the figures for the “apparent KD of MS2 coat protein” value with MS2 coat protein [3] and in the series with MS2 coat protein [4] were 54.7 nM and 39.9 nM, respectively.
The corresponding values for “UUUAUGUGAGGAUAUCAGUAGUAAAAAAAUAAAAUUACUACUGAGAAGGCACAUGAGGAUCACCCAUGUGUCUC [EX4 350: Super Stable 50]” are 15 nM and 17.5 nM.
